One test has as its target human CSPG5-FLAG_Fc (human). The experiment in a line: phage ELISA, immobilised antigen, anti-M13-HRP. The procedure: (§1) In the ELISA, human CSPG5-FLAG_Fc and mouse CSPG5-FLAG_Fc were immobilized on MAXISORP (manufactured by NUNC, Inc.), followed by blocking using SuperBlock Blocking Buffer (manufactured by Thermo Fisher Scientific, Inc.). As a negative control, a plate on which Fc was immobilized was also prepared.
(§2) To each well, each phage clone was added and allowed to react at room temperature for 30 minutes, and thereafter, each well was washed with PBS-T. Subsequently, a solution obtained by diluting an anti-M13 antibody (manufactured by GE Healthcare, Inc.) labeled with horseradish peroxidase with PBS-T comprising 10% Block Ace (manufactured by Dainippon Pharmaceutical Co., Ltd.) was added to each well and incubated at room temperature for 30 minutes. After the microplate was washed 3 times with PBS-T, a 3,3′,5,5′-tetramethylbenzidine (TMB) chromogenic substrate solution (manufactured by DAKO, Inc.) was added thereto, followed by incubation at room temperature. The coloring reaction was stopped by adding a 0.5 mol/L sulfuric acid to each well, and an absorbance at a wavelength of 450 nm (reference wavelength: 570 nm) was measured using a microplate reader. […]

The target of a further test is mouse CSPG5-FLAG_Fc (mouse). The experiment in a line: phage ELISA, immobilised antigen, anti-M13-HRP. On the procedure:
as §1, §2

B1: pCANTAB_CSPG5115 phage clone (scFv, V domains shown)
VH: EVQLVQSGAEVKKPGASLKVSCKASGYSFTDYIIHWVRQAPGQSLEWMGWINGGSGVPKYSDKFQGRVTITRDTSANTAYMEIRSLGSEDTAVYYCARGGVCSGDKCYYYGMDVWGQGTTVTVSS
VL: QSVLTQPPSVSVSPGQTASITCSGDKLGDKYSWWYQQKPGQSPLLVIHQDNKRPSGIPERFSGSNSGNTATLTIVGTQAMDEADYYCQAWDRGVVFGGGTKLTVL
notes: also called CSPG5115 scFv on phage
For B1, the binding result in the test with human CSPG5-FLAG_Fc and with mouse CSPG5-FLAG_Fc was “binds” in each case.

B2: pCANTAB_CSPG5219 phage clone (scFv, V domains shown)
VH: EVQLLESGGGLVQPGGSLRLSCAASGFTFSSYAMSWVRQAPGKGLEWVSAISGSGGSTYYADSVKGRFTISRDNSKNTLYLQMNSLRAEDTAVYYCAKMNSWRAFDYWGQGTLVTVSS
VL: EIVLTQSPGTLSLSPGERATLSCRASQSVSSSYLAWYQQKPGQAPRLLIYGASSRATGIPDRFSGSGSGTDFTLTISRLEPEDFAVYYCQQLRRKGSTFGQGSKVEIK
notes: also called CSPG5219 scFv on phage
In the case of B2, the binding result with human CSPG5-FLAG_Fc and with mouse CSPG5-FLAG_Fc was “binds” in each case.

B3: pCANTAB_CSPG5206 phage clone (scFv, V domains shown)
VH: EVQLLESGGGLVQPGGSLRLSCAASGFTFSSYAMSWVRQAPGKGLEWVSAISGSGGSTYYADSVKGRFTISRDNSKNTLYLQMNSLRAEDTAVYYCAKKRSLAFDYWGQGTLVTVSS
VL: QSALTQPASVSGSPGQSITISCTGTSTDVNGYNYVSWYQQYAGKAPKLIIFDVSKRPSGVSNRFSGSKSGDTASLTISGLQAEDEADYHCSSYNRKRPPVLFGGGTKLTVL
notes: also called CSPG5206 scFv on phage
As for B3, the binding result with human CSPG5-FLAG_Fc and in the test with mouse CSPG5-FLAG_Fc was “binds” throughout.

B4: pCANTAB_CSPG5201 phage clone (scFv, V domains shown)
VH: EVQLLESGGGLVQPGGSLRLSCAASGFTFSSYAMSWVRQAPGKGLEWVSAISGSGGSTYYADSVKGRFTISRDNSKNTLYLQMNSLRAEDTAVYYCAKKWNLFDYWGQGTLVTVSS
VL: QSALTQPASVSGSPGQSITISCTGTSTDVNGYNYVSWYQQYAGKAPKLIIFDVSKRPSGVSNRFSGSKSGDTASLTISGLQAEDEADYHCSSYRRLRLPVLFGGGTKLTVL
notes: also called CSPG5201 scFv on phage
For B4, the binding result in the test with human CSPG5-FLAG_Fc and with mouse CSPG5-FLAG_Fc was “binds” throughout.

B5: pCANTAB_CSPG5207 phage clone (scFv, V domains shown)
VH: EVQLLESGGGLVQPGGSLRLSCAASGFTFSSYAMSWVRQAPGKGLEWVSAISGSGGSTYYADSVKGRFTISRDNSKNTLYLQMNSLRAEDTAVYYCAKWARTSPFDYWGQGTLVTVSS
VL: QSALTQPASVSGSPGQSITISCTGTSTDVNGYNYVSWYQQYAGKAPKLIIFDVSKRPSGVSNRFSGSKSGDTASLTISGLQAEDEADYHCSSYTPSRARVLFGGGTKLTVL
notes: also called CSPG5207 scFv on phage
For B5, the binding result in the test with human CSPG5-FLAG_Fc and with mouse CSPG5-FLAG_Fc was “binds” throughout.

B6: pCANTAB_CSPG5214 phage clone (scFv, V domains shown)
VH: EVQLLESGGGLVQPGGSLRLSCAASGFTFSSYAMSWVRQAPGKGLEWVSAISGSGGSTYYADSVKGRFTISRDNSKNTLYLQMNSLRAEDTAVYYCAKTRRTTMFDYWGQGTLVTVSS
VL: QSALTQPASVSGSPGQSITISCTGTSTDVNGYNYVSWYQQYAGKAPKLIIFDVSKRPSGVSNRFSGSKSGDTASLTISGLQAEDEADYHCSSYNPHHSGVLFGGGTKLTVL
notes: also called CSPG5214 scFv on phage
Regarding B6, the binding result with human CSPG5-FLAG_Fc and with mouse CSPG5-FLAG_Fc was “binds” in each case.

B7: pCANTAB_CSPG5230 phage clone (scFv, V domains shown)
VH: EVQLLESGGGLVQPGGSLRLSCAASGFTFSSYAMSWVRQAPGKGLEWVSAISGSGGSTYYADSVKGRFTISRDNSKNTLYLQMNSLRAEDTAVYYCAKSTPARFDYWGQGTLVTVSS
VL: QSALTQPASVSGSPGQSITISCTGTSTDVNGYNYVSWYQQYAGKAPKLIIFDVSKRPSGVSNRFSGSKSGDTASLTISGLQAEDEADYHCSSYHTRPATVLFGGGTKLTVL
notes: also called CSPG5230 scFv on phage
As to B7, the binding result in the test with human CSPG5-FLAG_Fc and in the test with mouse CSPG5-FLAG_Fc was “binds” in each case.

B8: pCANTAB_CSPG5234 phage clone (scFv, V domains shown)
VH: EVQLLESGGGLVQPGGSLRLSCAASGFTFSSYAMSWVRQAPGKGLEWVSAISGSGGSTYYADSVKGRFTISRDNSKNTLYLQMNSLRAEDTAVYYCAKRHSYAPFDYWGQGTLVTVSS
VL: QSALTQPASVSGSPGQSITISCTGTSTDVNGYNYVSWYQQYAGKAPKLIIFDVSKRPSGVSNRFSGSKSGDTASLTISGLQAEDEADYHCSSYRPKARSVLFGGGTKLTVL
notes: also called CSPG5234 scFv on phage
Regarding B8, the binding result with human CSPG5-FLAG_Fc and with mouse CSPG5-FLAG_Fc was “binds” each time.

B9: pCANTAB_CSPG5168 phage clone (scFv, V domains shown)
VH: EVQLVETGGALVQPGGSLRLSCAGSGFIFSKYEMTWVRQAPGKGLEWVSTIGSLGLKTFYTDSVKGRFTTSRDNSRDTLFLQMDNLRVEDTAIYFCVKGGIRRADYWGKGTLVTVSS
VL: EIVMTQSPATLSLSPGERATLSCRASQSVSSYLAWYQQKPGQAPRLLIYDASNRATGIPARFSGSGSGTDFTLTISSLEPEDFAVYYCQQRSNWPLTFGGGTKVEIK
notes: also called CSPG5168 scFv on phage
As for B9, the binding result with human CSPG5-FLAG_Fc and in the test with mouse CSPG5-FLAG_Fc was “binds” in each case.

B10: pCANTAB_CSPG5120 phage clone (scFv, V domains shown)
VH: EVQLVQSGGGLVQPGGSLRLSCAASGFTFSNYWMTWVRQAPGEGPEWVANINQDGSQKYYVDSVKGRFTISRDNAKNSLNLQMNNLRAEDTALYYCAKSNAMDVWGQGTLVTVSS
VL: DIVMTQSPLSLPVTPGEPASISCRSSESLLHSNGYNYLNWYLQKPGQSPQLLIYLGSHRASGVPDRLSGSGSDTDFTLKISRVEAEDVGIYYCMQGRQTPITFGGGTKLEIK
notes: also called CSPG5120 scFv on phage
In the case of B10, the binding result in the test with human CSPG5-FLAG_Fc and with mouse CSPG5-FLAG_Fc was “binds” throughout.

Values taken from patent US20210269548A1 (Kyowa Kirin, published 2021).
